For assay [1], the target named is T1, mouse EphA4 extracellular region-SEAP-His protein (mouse).
T1 construct: also called mouse EphA4 extracellular region-SEAP-His 10
The experiment in a line: SPR, Biacore T200; EphA4 extracellular region-SEAP-His captured on anti-His chip, antibody as analyte, 1:1 model. The procedure:
The binding affinity of antibody A against mouse and human EphA4 was determined by surface plasmon resonance (SPR method) employing Biacore T200 (GE Healthcare). First, anti-His antibodies (GE Healthcare, 28-9950-56) were fixed to a sensor chip CM5. Fixation was carried out by amine coupling method employing N-hydroxysuccinimide (NHS) and N-ethyl-N′-(3-dimethylaminopropyl) carbodiimide hydrochloride salt (EDC), and ethanolamine was employed for blocking (the sensor chip and reagents for fixation are all from GE Healthcare). This was diluted with the fixation buffer (10 mM sodium acetate, pH 4.5) to 3.5 μg/mL, and fixed onto the sensor chip according to the protocol accompanying Biacore T200. Mouse or human EphA4 extracellular region-SEAP-His 10 was diluted with the running buffer HBS-EP (GE Healthcare, BR-1001-88), and the solution was sent and captured onto the flow cell for 120 seconds (about 10 RU of captured amount). Subsequently, antibody A serially diluted to a range of 100, 50, 25, 12.5, 6.3, 3.2, 1.6, 0 nM with HBS-EP was added to the sensor chip for 120 seconds, and the binding reaction curve at the time of addition (binding phase, 120 seconds) and after completing the addition (dissociation phase, 600 seconds) was sequentially observed. Upon completion of each observation, 4 M MgCl₂ (60 seconds, Wako Pure Chemicals) was added to regenerate the sensor chip. Fitting analysis by 1:1 binding model employing the software accompanying the system, BIA evaluation software, was carried out against the binding reaction curve obtained, and the binding affinity (KD=kd/ka) against mouse and human EphA4 was calculated.
The binding affinity of antibody B obtained in Example 1 against human EphA4 was determined by surface plasmon resonance (SPR method) employing Biacore T200 (GE Healthcare). First, anti-His antibodies (GE Healthcare, 28-9950-56) were fixed to a sensor chip CMS. […]
On the technique in general: In SPR one partner is held on a chip, and binding of the other changes the refractive index at the surface.

The target of assay [2] is T2, human EphA4 extracellular region-SEAP-His protein (human, UniProt P54764 20-547).
T2 construct: also called human EphA4 extracellular region-SEAP-His 10; not shown: secretory alkaline phosphatase (SEAP); histidine tag
T2 sequence (P54764 20-547): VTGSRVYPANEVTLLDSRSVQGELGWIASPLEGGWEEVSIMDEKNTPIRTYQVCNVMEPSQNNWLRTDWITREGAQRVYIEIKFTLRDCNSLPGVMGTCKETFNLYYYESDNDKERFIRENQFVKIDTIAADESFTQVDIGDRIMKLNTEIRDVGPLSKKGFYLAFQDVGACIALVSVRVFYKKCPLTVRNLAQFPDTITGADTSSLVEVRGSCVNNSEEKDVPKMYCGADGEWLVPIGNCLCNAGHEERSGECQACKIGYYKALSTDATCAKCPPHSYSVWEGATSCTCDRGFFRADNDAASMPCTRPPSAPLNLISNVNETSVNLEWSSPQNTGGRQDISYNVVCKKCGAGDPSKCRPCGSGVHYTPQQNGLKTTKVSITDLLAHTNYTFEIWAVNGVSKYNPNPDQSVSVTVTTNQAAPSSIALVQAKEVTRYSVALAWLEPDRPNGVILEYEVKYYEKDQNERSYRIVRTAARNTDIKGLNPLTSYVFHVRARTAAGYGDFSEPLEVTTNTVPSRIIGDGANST
The experiment in a line: ELISA: EphA4 extracellular region-SEAP-His (1 nM) captured on anti-alkaline phosphatase antibody, antibody B titrated with human IgG 100 µg/mL, HRP anti-human IgG, OD450 as % of top concentration. The procedure: Anti-alkaline phosphatase antibodies (Thermo […]) were coated onto the wells of a 96-well plate (Nunc). After incubating at 4° C. overnight, the wells were blocked at room temperature for 1 hour by 1% Block Ace (DS Pharma Biomedical). After washing 3 times with 0.05% Tween 20/PBS (Thermo […]), mouse, rat, monkey, and human EphA4 extracellular region-SEAP-His proteins (final concentration 1 nM) were seeded into the wells, and incubated at room temperature for 1 hour. After washing 3 times, human IgG solution (100 μg/mL, Mitsubishi Pharma Corporation) and antibody B (0, 0.00013, 0.00064, 0.0032, 0.016, 0.08, 0.4, 2, 10 μg/mL) were supplemented to the wells, and incubated at room temperature for 1 hour. Horseradish peroxidase-labeled donkey anti-human IgG antibody (Jackson ImmunoResearch Laboratories) was added, and incubated at room, temperature for 1 hour. After washing 3 times, TMBZ (3,3′,5,5′-tetramethylbenzidine, Sigma) solution was added to the wells, and upon confirmation of modest coloring, an equal amount of quenching solution (1 N H₂SO₄, Wako Pure Chemicals) was added to the wells, and absorbance at 450 nm was read by a microplate reader (PerkinElmer).
(ELISA stands for enzyme-linked immunosorbent assay.)

The target in another assay is MBP. The experiment in a line: ELISA: human EphA4 domain-MBP-His proteins (10 nM) captured on anti-6-His antibody, antibody B 10 nM, HRP anti-human IgG Fc fragment antibody, OD450-OD650. As for the experimental part: Rabbit anti-6-His antibodies (Bethyl Laboratories) were coated onto the wells of a 96-well plate (Nunc). After incubating at 4° C. overnight, the wells were blocked at room temperature for 1 hour by 1% Block Ace (DS Pharma Biomedical). After washing twice with 0.02% Tween 20/PBS (Nacalai Tesque), human EphA4 extracellular region-MBP-His protein, human EphA4 ligand binding domain-MBP-His protein, human EphA4 fibronectin type III domain 1-MBP-His protein, and human EphA4 fibronectin type III domain 2-MBP-His protein (final concentration 10 nM) were seeded into the wells, and incubated at room temperature for 1 hour. After washing 3 times, antibody B (final concentration 10 nM) was supplemented to the wells, and incubated at room temperature for 1 hour. Horseradish peroxidase-labeled rabbit anti-human IgG Fey fragment antibody (Jackson ImmunoResearch Laboratories) was added, and incubated at room temperature for 1 hour. After washing 5 times, TMB (KPL) solution was added to the wells, and upon confirmation of modest coloring, an equal amount of quenching solution (2 N […]) was added to the wells, and absorbance at 450 nm and 650 nm were read by a microplate reader (PerkinElmer).

For assay [3], the target named is T3, mouse EphA4 extracellular region-Fc-His protein (mouse; human, UniProt Q03137 20-547).
T3 construct: Used as culture supernatant of transfected cells; not shown: Fc region of human IgG1; histidine tag
T3 sequence (Q03137 20-547): as the sequence (P54764 20-547) above, with P59A, N121S, V124G, R250Q, S251N, T270S, K378R, N406S counted along it
Description: ELISA; Eph receptor extracellular region-Fc-His captured by anti-6-His antibody, antibody at 10 µg/mL. As for the experimental part:
For antibody B, the evaluation of the binding activity of mouse Eph receptor was carried out according to the following steps.
Rabbit anti-6-His antibodies (Bethyl Laboratories) were coated onto the wells of a 96-well plate (Nunc). After incubating at 4° C. overnight, the wells were blocked at room temperature for 1 hour by 1% Block Ace (DS Pharma Biomedical). After washing 3 times with 0.05% Tween 20/PBS (Thermo […]), each Eph receptor of mouse extracellular region-Fc-His protein (final concentration 1 nM) was seeded into each well, and incubated at room temperature for 1 hour. After washing 3 times, human IgG solution (100 μg/mL, Sigma) and antibody B (10 μg/mL) were supplemented to the wells, and incubated at room temperature for 1 hour. Horseradish peroxidase-labeled goat anti-human Kappa Light Chain antibody (IBL) was added, and incubated at room temperature for 1 hour. After washing 3 times, TMBZ (3,3′,5,5′-tetramethylbenzidine, Sigma) solution was added to the wells, and upon confirmation of modest coloring, an equal amount of quenching solution (1 N H₂SO₄, Wako Pure Chemicals) was added to the wells, and absorbance at 450 nm was read by a microplate reader (PerkinElmer).

A word on the Kd: it is the free concentration of one partner at which half of the binding sites on the other are occupied at equilibrium, for simple one-to-one binding. Higher therefore signals weaker binding. As a reminder, the EC50 (read off the curve) is the concentration needed to bring the measured effect to its halfway point. High values mean lower potency in that assay, low ones higher potency in that assay.

T1 sequence (chain, as listed by the source limits assumed): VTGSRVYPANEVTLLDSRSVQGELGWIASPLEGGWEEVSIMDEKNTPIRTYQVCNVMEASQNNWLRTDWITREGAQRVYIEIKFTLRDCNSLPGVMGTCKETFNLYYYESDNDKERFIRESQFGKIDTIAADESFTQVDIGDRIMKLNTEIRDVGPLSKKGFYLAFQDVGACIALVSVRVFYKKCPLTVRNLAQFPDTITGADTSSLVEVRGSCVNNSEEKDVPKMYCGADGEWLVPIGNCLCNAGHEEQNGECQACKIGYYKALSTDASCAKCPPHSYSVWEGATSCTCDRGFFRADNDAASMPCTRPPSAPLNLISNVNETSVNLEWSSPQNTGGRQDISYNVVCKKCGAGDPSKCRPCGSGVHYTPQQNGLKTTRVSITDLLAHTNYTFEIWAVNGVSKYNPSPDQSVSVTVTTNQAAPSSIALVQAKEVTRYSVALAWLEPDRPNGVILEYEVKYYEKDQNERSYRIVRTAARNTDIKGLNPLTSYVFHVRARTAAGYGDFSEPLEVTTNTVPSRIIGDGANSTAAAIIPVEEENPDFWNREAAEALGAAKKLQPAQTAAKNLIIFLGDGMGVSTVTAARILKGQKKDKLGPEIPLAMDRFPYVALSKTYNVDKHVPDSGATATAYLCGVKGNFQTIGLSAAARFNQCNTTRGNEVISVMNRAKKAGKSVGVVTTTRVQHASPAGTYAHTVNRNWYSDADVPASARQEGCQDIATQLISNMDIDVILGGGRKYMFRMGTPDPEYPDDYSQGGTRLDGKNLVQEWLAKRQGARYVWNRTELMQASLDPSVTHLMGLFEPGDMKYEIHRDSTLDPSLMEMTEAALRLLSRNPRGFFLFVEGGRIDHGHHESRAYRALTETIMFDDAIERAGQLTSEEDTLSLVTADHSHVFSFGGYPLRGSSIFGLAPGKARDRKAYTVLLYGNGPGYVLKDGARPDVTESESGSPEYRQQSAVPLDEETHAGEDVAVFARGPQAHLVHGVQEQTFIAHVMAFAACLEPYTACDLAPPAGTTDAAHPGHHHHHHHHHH

B1: mouse anti-EphA4 monoclonal antibody (antibody A) (antibody, mouse IgG1, kappa, V domains shown)
VH: QVQLKQSGPSLVQPSQSLSITCTVSGFSLTRYGVHWVRQSPGKGLEWLGVIWRGGSTDYNAAFMSRLSITKDNSKSQVFFKMNSLQADDTAIYYCAKESLFGVYYDYGYYSMDYWGQGTSVTVSS
VL: DIQMTQSPSSLSASLGERVSLTCRASQEISGYLSWLQQKPDGTIKRLIYAASTLDSGVPKRFSGSRSGSDYSLTISSLESEDFADYYCLQYASYPLTFGAGTKLELKR
notes: purified from hybridoma supernatant
As to B1, binding in assay [1] was put at a Kd of 1320 pM. This lies in the single-digit nanomolar range.

B2: humanized anti-EphA4 monoclonal antibody (antibody B) (antibody, human IgG2, V domains shown)
VH: QVQLVESGGGVVQPGRSLRLSCAVSGFSLTRFGVHWVRQAPGKGLEWVAVIWRGGSTDYNAAFMSRLTISKDNSKNTVYLQMNSLRAEDTAVYYCAKESLFGVYYDYGYYSMDYWGQGTTVTVSS
VL: DIQMTQSPSSLSASVGDRVTITCRASQEISGYLSWLQQKPGKAPKRLIYAASTLDSGVPSRFSGSRSGTEYTLTISSLQPEDFATYYCLQYASYPLTFGGGTKVEIKR
notes: expressed in Expi293F cells; also called humanized antibody of antibody A; HK2-42 / L1-8
As for B2, in assay [2], the “EC50 (read off the curve)” value was around 300 pM. Besides, the binding result in the assay with MBP is recorded as “no binding (tested: 10 nM)”; in assay [3], “binds”.

Source of the values: patent US20240010735A1 (EISAI R AND D MANAGEMENT, published 2024).
